Reference: the supplement of paper PMC10065799, “High-throughput profiling of sequence recognition by tyrosine kinases and SH2 domains using bacterial peptide display” (eLife, 2023)

What was measured:
[1] = target: c-Src SH2; experiment: SH2 binding enrichment of the phosphorylated peptide, bacterial display (enrichment ratio); higher = better substrate or ligand; peptides without Tyr show the background
[2] = target: SHP2-C SH2; experiment: as above
[3] = target: Grb2 SH2 (UniProt P62993); experiment: as above
[4] = tested on: AncSZ; experiment: phosphorylation enrichment, bacterial display (enrichment ratio); higher = better substrate or ligand; peptides without Tyr show the background
[5] = target: Hck (UniProt P08631); experiment: as above
Sequence of Hck (P08631 whole entry, looked up): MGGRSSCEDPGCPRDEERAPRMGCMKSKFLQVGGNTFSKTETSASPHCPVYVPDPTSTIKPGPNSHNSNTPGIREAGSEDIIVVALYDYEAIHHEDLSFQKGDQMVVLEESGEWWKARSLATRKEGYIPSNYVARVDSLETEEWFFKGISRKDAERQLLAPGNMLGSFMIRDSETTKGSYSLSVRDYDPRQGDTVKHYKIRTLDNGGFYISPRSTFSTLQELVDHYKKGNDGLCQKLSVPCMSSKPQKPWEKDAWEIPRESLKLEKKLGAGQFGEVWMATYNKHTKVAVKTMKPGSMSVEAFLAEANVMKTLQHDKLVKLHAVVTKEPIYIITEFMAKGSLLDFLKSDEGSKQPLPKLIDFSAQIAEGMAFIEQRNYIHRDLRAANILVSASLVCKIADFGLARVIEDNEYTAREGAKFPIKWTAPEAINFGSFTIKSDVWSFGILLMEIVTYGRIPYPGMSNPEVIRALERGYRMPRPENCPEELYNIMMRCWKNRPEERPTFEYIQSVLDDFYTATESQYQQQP

[6] = tested on: c-Abl (mouse); experiment: as above
[7] = target: FGFR3 (UniProt P22607); experiment: as above
Sequence of FGFR3 (P22607 whole entry, looked up): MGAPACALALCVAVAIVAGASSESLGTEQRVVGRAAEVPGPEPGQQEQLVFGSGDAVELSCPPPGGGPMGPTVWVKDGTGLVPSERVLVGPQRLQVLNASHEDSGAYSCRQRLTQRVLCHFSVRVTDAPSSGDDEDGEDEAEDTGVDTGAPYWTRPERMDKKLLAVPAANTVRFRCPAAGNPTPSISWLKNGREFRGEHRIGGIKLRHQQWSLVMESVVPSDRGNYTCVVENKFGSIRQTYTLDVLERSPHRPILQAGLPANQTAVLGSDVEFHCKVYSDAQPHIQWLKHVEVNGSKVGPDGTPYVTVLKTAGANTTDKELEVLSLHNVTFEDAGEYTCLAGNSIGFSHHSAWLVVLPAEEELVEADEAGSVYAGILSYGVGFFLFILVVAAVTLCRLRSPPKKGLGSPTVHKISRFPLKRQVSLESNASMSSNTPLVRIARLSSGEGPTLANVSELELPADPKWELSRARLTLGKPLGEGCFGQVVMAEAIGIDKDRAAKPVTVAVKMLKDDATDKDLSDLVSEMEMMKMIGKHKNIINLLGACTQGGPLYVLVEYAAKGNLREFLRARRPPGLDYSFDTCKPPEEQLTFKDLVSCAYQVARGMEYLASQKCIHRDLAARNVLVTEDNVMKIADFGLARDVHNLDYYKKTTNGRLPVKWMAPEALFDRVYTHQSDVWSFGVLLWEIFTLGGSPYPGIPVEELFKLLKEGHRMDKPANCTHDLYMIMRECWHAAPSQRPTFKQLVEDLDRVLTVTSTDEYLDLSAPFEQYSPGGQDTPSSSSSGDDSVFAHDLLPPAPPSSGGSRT

[8] = target: Jak2 (UniProt O60674); experiment: as above
Sequence of Jak2 (O60674 whole entry, looked up): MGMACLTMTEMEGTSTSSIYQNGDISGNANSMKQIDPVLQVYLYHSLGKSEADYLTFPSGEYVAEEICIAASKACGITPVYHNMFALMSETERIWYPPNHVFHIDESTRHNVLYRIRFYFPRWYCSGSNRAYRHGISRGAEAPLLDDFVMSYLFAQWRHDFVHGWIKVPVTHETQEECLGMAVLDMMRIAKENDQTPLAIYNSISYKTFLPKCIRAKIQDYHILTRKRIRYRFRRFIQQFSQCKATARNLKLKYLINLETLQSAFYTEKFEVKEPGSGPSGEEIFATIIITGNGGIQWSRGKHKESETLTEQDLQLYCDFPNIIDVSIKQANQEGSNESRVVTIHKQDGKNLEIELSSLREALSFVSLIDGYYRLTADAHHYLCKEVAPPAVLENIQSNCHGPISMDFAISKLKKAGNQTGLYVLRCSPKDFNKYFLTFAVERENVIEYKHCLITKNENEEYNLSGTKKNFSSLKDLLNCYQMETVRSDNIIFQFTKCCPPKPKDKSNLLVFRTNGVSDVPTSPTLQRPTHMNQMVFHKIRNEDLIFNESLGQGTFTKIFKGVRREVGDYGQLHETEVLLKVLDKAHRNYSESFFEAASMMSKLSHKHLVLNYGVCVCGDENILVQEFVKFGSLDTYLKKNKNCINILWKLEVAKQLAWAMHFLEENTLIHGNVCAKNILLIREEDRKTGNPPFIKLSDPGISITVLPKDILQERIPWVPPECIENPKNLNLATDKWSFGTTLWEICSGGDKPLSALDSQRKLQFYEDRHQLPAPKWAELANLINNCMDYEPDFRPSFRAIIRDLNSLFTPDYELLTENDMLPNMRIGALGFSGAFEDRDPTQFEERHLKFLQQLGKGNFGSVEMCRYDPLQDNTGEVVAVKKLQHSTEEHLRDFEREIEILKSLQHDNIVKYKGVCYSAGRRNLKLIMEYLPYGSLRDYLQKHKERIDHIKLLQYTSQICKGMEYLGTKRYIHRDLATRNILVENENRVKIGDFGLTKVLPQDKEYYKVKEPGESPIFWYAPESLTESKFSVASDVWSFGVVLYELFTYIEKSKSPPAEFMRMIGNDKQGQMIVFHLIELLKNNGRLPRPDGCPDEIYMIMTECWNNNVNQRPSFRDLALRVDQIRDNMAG

[9] = target: Fyn (UniProt P06241); experiment: as above
[10] = tested on: c-Src; experiment: as above
[11] = target: EPHB2 (UniProt P29323); experiment: as above
[12] = tested on: Fer (mouse); experiment: as above
[13] = target: Fes (UniProt P07332); experiment: as above
Sequence of Fes (P07332 whole entry, looked up): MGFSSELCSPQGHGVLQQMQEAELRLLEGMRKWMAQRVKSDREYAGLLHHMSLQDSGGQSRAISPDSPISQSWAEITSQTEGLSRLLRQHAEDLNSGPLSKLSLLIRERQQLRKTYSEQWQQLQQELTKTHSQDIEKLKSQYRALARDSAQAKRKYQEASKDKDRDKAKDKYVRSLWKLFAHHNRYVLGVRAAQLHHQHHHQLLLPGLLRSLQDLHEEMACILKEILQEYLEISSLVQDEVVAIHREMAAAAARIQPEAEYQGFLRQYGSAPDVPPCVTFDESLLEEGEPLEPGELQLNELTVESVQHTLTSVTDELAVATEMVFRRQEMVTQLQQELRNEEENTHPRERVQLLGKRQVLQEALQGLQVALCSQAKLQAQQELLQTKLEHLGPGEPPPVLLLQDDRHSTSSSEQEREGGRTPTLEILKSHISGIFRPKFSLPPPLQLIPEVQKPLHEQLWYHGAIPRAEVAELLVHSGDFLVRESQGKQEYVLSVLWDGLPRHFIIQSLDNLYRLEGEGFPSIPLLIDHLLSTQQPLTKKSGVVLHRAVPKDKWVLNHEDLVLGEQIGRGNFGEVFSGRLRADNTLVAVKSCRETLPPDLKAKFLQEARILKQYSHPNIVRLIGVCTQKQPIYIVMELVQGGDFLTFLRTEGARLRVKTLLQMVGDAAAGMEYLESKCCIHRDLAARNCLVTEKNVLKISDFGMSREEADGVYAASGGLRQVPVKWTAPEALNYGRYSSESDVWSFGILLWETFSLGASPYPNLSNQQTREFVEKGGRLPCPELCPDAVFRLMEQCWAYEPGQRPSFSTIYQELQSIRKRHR

[14] = target: MERTK (UniProt Q12866); experiment: as above
[15] = target: FGFR1 (UniProt P11362); experiment: as above
Sequence of FGFR1 (P11362 whole entry, looked up): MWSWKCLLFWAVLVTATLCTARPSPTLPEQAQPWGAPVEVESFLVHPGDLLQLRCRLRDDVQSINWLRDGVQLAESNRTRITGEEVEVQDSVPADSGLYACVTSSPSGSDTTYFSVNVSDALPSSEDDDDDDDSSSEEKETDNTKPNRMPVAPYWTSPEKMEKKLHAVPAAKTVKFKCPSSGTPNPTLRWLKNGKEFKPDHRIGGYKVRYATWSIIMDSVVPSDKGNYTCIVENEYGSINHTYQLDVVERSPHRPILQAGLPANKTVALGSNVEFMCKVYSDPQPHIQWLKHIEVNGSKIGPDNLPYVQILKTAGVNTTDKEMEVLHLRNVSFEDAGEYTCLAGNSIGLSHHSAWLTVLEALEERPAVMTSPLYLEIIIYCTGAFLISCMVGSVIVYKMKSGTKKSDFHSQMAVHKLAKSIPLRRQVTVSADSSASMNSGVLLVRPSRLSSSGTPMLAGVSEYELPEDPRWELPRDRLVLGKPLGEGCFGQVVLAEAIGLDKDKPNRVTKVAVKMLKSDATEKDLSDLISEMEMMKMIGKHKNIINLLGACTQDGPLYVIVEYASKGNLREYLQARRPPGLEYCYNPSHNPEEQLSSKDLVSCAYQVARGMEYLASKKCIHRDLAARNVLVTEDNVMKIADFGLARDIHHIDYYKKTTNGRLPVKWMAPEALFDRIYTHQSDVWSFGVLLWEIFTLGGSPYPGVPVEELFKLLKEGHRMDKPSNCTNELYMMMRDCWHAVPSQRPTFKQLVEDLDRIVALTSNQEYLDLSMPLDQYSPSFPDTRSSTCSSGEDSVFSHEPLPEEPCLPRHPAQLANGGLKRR

[16] = target: EPHB1 (UniProt P54762); experiment: as above
Sequence of EPHB1 (P54762 whole entry, looked up, the tested form may be a part): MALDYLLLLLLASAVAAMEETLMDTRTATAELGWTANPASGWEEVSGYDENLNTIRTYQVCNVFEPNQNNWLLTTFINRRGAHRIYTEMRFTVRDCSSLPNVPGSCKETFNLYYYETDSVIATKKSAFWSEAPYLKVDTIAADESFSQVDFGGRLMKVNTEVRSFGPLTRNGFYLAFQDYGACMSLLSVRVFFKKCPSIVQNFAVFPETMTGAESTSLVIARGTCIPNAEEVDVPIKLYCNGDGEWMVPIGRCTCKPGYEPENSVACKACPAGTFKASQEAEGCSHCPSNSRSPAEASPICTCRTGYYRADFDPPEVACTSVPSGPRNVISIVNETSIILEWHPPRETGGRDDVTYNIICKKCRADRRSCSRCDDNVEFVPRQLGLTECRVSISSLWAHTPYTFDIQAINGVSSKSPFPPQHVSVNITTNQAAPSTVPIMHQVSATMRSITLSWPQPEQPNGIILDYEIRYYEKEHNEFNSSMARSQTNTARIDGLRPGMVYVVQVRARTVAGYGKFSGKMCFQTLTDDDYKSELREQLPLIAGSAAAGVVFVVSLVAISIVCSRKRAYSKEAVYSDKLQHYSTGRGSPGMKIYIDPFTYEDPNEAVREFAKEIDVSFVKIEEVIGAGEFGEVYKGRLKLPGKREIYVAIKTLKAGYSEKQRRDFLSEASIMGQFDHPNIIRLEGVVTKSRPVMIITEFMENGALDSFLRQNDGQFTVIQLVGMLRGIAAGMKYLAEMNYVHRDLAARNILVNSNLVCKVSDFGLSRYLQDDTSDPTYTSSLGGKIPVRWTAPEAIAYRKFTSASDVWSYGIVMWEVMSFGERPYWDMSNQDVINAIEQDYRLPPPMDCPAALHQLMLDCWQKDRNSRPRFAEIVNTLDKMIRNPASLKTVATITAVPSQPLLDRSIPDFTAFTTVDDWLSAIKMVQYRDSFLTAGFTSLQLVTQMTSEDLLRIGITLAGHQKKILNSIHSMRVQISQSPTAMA
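Throughout, for SH2 binding enrichment of the phosphorylated peptide, bacterial display: peptide library displayed on the E. coli surface as eCPX fusions, selected cells deep-sequenced, score is each peptide's frequency after selection divided by its frequency in the input.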
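Throughout, for phosphorylation enrichment, bacterial display: 11-residue human phosphosite peptides and single-mutation variants displayed on the E. coli surface, counted by deep sequencing, each peptide's frequency after selection divided by its frequency in the unselected input library; frequency after pTyr selection over input frequency; kinase dosed for 20-30% of maximal phosphorylation in three min.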

PVQAAYQNVVA [HBB_Y131_K133N]
SH2 binding enrichment [1]: 3.07 | SH2 binding enrichment [2]: 1.49 | SH2 binding enrichment [3]: 34.4 | phosphorylation enrichment [4]: 0.931 | phosphorylation enrichment [5]: 0.536 | phosphorylation enrichment [6]: 0.591 | phosphorylation enrichment [7]: 0.692 | phosphorylation enrichment [8]: 0.645 | phosphorylation enrichment [9]: 0.644 | phosphorylation enrichment [10]: 0.49 | phosphorylation enrichment [11]: 0.567 | phosphorylation enrichment [12]: 0.98 | phosphorylation enrichment [13]: 0.877 | phosphorylation enrichment [14]: 0.591 | phosphorylation enrichment [15]: 0.699 | phosphorylation enrichment [16]: 0.915

PVQAAYQQVVA [HBB_Y131_K133Q]
SH2 binding enrichment [1]: 1.35 | SH2 binding enrichment [2]: 1.06 | SH2 binding enrichment [3]: 0.541 | phosphorylation enrichment [4]: 0.554 | phosphorylation enrichment [5]: 0.659 | phosphorylation enrichment [6]: 0.677 | phosphorylation enrichment [7]: 0.739 | phosphorylation enrichment [8]: 0.736 | phosphorylation enrichment [9]: 0.6 | phosphorylation enrichment [10]: 0.576 | phosphorylation enrichment [11]: 0.822 | phosphorylation enrichment [12]: 0.484 | phosphorylation enrichment [13]: 0.754 | phosphorylation enrichment [14]: 0.415 | phosphorylation enrichment [15]: 0.673 | phosphorylation enrichment [16]: 0.566

PVVKLYATEGR [RP1_Y199_D202E]
SH2 binding enrichment [1]: 0.702 | SH2 binding enrichment [2]: 1.1 | SH2 binding enrichment [3]: 0.966 | phosphorylation enrichment [4]: 0.858 | phosphorylation enrichment [5]: 0.794 | phosphorylation enrichment [6]: 0.71 | phosphorylation enrichment [7]: 0.568 | phosphorylation enrichment [8]: 0.683 | phosphorylation enrichment [9]: 0.633 | phosphorylation enrichment [10]: 0.54 | phosphorylation enrichment [11]: 0.251 | phosphorylation enrichment [12]: 0.455 | phosphorylation enrichment [13]: 0.807 | phosphorylation enrichment [14]: 0.574 | phosphorylation enrichment [15]: 0.496 | phosphorylation enrichment [16]: 0.389

QAEEWYFGKMG [YES1_Y159]
SH2 binding enrichment [1]: 0.359 | SH2 binding enrichment [2]: 1.09 | SH2 binding enrichment [3]: 0.942 | phosphorylation enrichment [4]: 1.28 | phosphorylation enrichment [5]: 0.847 | phosphorylation enrichment [6]: 1.05 | phosphorylation enrichment [7]: 1.07 | phosphorylation enrichment [8]: 1.44 | phosphorylation enrichment [9]: 0.773 | phosphorylation enrichment [10]: 0.787 | phosphorylation enrichment [11]: 0.48 | phosphorylation enrichment [12]: 0.603 | phosphorylation enrichment [13]: 1.13 | phosphorylation enrichment [14]: 0.439 | phosphorylation enrichment [15]: 1.17 | phosphorylation enrichment [16]: 0.498

QCTSHYPEHVC [SART3_Y541_D540H]
SH2 binding enrichment [1]: 0.699 | SH2 binding enrichment [2]: 0.795 | SH2 binding enrichment [3]: 0.966 | phosphorylation enrichment [4]: 1.03 | phosphorylation enrichment [5]: 0.633 | phosphorylation enrichment [6]: 0.585 | phosphorylation enrichment [7]: 0.677 | phosphorylation enrichment [8]: 0.766 | phosphorylation enrichment [9]: 0.666 | phosphorylation enrichment [10]: 0.34 | phosphorylation enrichment [11]: 0.747 | phosphorylation enrichment [12]: 0.393 | phosphorylation enrichment [13]: 0.991 | phosphorylation enrichment [14]: 0.417 | phosphorylation enrichment [15]: 0.727 | phosphorylation enrichment [16]: 0.458

QDEHGYISRCF [HSPB1_Y133]
SH2 binding enrichment [1]: 0.445 | SH2 binding enrichment [2]: 0.763 | SH2 binding enrichment [3]: 0.662 | phosphorylation enrichment [4]: 1.23 | phosphorylation enrichment [5]: 0.838 | phosphorylation enrichment [6]: 0.861 | phosphorylation enrichment [7]: 0.792 | phosphorylation enrichment [8]: 0.965 | phosphorylation enrichment [9]: 0.741 | phosphorylation enrichment [10]: 0.418 | phosphorylation enrichment [11]: 0.923 | phosphorylation enrichment [12]: 0.601 | phosphorylation enrichment [13]: 1.19 | phosphorylation enrichment [14]: 0.396 | phosphorylation enrichment [15]: 0.555 | phosphorylation enrichment [16]: 0.718

QDRDLYPCPGT [RLF_Y671]
SH2 binding enrichment [1]: 0.644 | SH2 binding enrichment [2]: 0.717 | SH2 binding enrichment [3]: 1.11 | phosphorylation enrichment [4]: 1.05 | phosphorylation enrichment [5]: 0.429 | phosphorylation enrichment [6]: 0.863 | phosphorylation enrichment [7]: 0.878 | phosphorylation enrichment [8]: 1.1 | phosphorylation enrichment [9]: 0.936 | phosphorylation enrichment [10]: 0.613 | phosphorylation enrichment [11]: 0.693 | phosphorylation enrichment [12]: 0.687 | phosphorylation enrichment [13]: 1.37 | phosphorylation enrichment [14]: 0.751 | phosphorylation enrichment [15]: 0.484 | phosphorylation enrichment [16]: 0.71

QEIATCRRLLE [KRT14_Y415_Y415C]
SH2 binding enrichment [1]: 0.704 | SH2 binding enrichment [2]: 0.469 | SH2 binding enrichment [3]: 0.908 | phosphorylation enrichment [4]: 0.896 | phosphorylation enrichment [5]: 0.635 | phosphorylation enrichment [6]: 0.641 | phosphorylation enrichment [7]: 0.508 | phosphorylation enrichment [8]: 0.643 | phosphorylation enrichment [9]: 0.352 | phosphorylation enrichment [10]: 0.372 | phosphorylation enrichment [11]: 0.502 | phosphorylation enrichment [12]: 0.337 | phosphorylation enrichment [13]: 0.928 | phosphorylation enrichment [14]: 0.407 | phosphorylation enrichment [15]: 0.634 | phosphorylation enrichment [16]: 0.412

QEIATYRRQLE [KRT14_Y415_L418Q]
SH2 binding enrichment [1]: 0.593 | SH2 binding enrichment [2]: 0.332 | SH2 binding enrichment [3]: 0.768 | phosphorylation enrichment [4]: 1.11 | phosphorylation enrichment [5]: 0.559 | phosphorylation enrichment [6]: 0.773 | phosphorylation enrichment [7]: 0.808 | phosphorylation enrichment [8]: 0.976 | phosphorylation enrichment [9]: 0.83 | phosphorylation enrichment [10]: 0.583 | phosphorylation enrichment [11]: 1.27 | phosphorylation enrichment [12]: 0.601 | phosphorylation enrichment [13]: 1.01 | phosphorylation enrichment [14]: 0.445 | phosphorylation enrichment [15]: 0.65 | phosphorylation enrichment [16]: 0.75

QFFQGYFNNNF [ZNF236_Y644_S643G]
SH2 binding enrichment [1]: 1.28 | SH2 binding enrichment [2]: 1.51 | SH2 binding enrichment [3]: 1.63 | phosphorylation enrichment [4]: 1.15 | phosphorylation enrichment [5]: 0.574 | phosphorylation enrichment [6]: 1.23 | phosphorylation enrichment [7]: 0.845 | phosphorylation enrichment [8]: 1.55 | phosphorylation enrichment [9]: 0.42 | phosphorylation enrichment [10]: 0.721 | phosphorylation enrichment [11]: 0.496 | phosphorylation enrichment [12]: 0.356 | phosphorylation enrichment [13]: 1.2 | phosphorylation enrichment [14]: 0.58 | phosphorylation enrichment [15]: 0.643 | phosphorylation enrichment [16]: 0.545

QFLMMYVWSAS [ABCD1_Y337_K336M]
SH2 binding enrichment [1]: 0.543 | SH2 binding enrichment [2]: 1.03 | SH2 binding enrichment [3]: 0.929 | phosphorylation enrichment [4]: 1.53 | phosphorylation enrichment [5]: 0.912 | phosphorylation enrichment [6]: 1.27 | phosphorylation enrichment [7]: 1.22 | phosphorylation enrichment [8]: 1.46 | phosphorylation enrichment [9]: 0.465 | phosphorylation enrichment [10]: 0.779 | phosphorylation enrichment [11]: 0.931 | phosphorylation enrichment [12]: 0.807 | phosphorylation enrichment [13]: 1.58 | phosphorylation enrichment [14]: 0.541 | phosphorylation enrichment [15]: 0.426 | phosphorylation enrichment [16]: 0.873

QFQEKYKQMEQ [HCN4_Y531_V534M_YF]
SH2 binding enrichment [1]: 0.472 | SH2 binding enrichment [2]: 0.956 | SH2 binding enrichment [3]: 0.844 | phosphorylation enrichment [4]: 1.24 | phosphorylation enrichment [5]: 1.53 | phosphorylation enrichment [6]: 0.976 | phosphorylation enrichment [7]: 1.05 | phosphorylation enrichment [8]: 1.36 | phosphorylation enrichment [9]: 0.93 | phosphorylation enrichment [10]: 0.366 | phosphorylation enrichment [11]: 0.576 | phosphorylation enrichment [12]: 0.502 | phosphorylation enrichment [13]: 1.87 | phosphorylation enrichment [14]: 0.554 | phosphorylation enrichment [15]: 0.654 | phosphorylation enrichment [16]: 0.608

QGFDTYFGFLL [ARSB_Y165_R160Q_YF]
SH2 binding enrichment [1]: 0.345 | SH2 binding enrichment [2]: 0.724 | SH2 binding enrichment [3]: 0.717 | phosphorylation enrichment [4]: 3.29 | phosphorylation enrichment [5]: 8.45 | phosphorylation enrichment [6]: 1.33 | phosphorylation enrichment [7]: 5.31 | phosphorylation enrichment [8]: 4.81 | phosphorylation enrichment [9]: 11.4 | phosphorylation enrichment [10]: 7.09 | phosphorylation enrichment [11]: 7.17 | phosphorylation enrichment [12]: 8.02 | phosphorylation enrichment [13]: 2.08 | phosphorylation enrichment [14]: 6.29 | phosphorylation enrichment [15]: 6.18 | phosphorylation enrichment [16]: 4.39

QGLMPYGQPRP [SRRT_Y798]
SH2 binding enrichment [1]: 0.357 | SH2 binding enrichment [2]: 0.653 | SH2 binding enrichment [3]: 0.955 | phosphorylation enrichment [4]: 0.853 | phosphorylation enrichment [5]: 0.563 | phosphorylation enrichment [6]: 0.725 | phosphorylation enrichment [7]: 0.527 | phosphorylation enrichment [8]: 0.601 | phosphorylation enrichment [9]: 0.488 | phosphorylation enrichment [10]: 0.883 | phosphorylation enrichment [11]: 0.513 | phosphorylation enrichment [12]: 0.424 | phosphorylation enrichment [13]: 0.863 | phosphorylation enrichment [14]: 0.596 | phosphorylation enrichment [15]: 0.696 | phosphorylation enrichment [16]: 0.568

QITQVYGFFHE [PPP2CA_Y127_D131H_YF]
SH2 binding enrichment [1]: 0.745 | SH2 binding enrichment [2]: 0.646 | SH2 binding enrichment [3]: 1.03 | phosphorylation enrichment [4]: 1.67 | phosphorylation enrichment [5]: 14.3 | phosphorylation enrichment [6]: 1.14 | phosphorylation enrichment [7]: 1.26 | phosphorylation enrichment [8]: 0.915 | phosphorylation enrichment [9]: 17.8 | phosphorylation enrichment [10]: 9.89 | phosphorylation enrichment [11]: 1.11 | phosphorylation enrichment [12]: 0.72 | phosphorylation enrichment [13]: 1.39 | phosphorylation enrichment [14]: 5.31 | phosphorylation enrichment [15]: 0.647 | phosphorylation enrichment [16]: 0.788

QKFMAYLSQGG [HLCS_Y236]
SH2 binding enrichment [1]: 0.877 | SH2 binding enrichment [2]: 1.17 | SH2 binding enrichment [3]: 1.23 | phosphorylation enrichment [4]: 0.839 | phosphorylation enrichment [5]: 0.738 | phosphorylation enrichment [6]: 0.446 | phosphorylation enrichment [7]: 0.64 | phosphorylation enrichment [8]: 0.945 | phosphorylation enrichment [9]: 1.2 | phosphorylation enrichment [10]: 0.542 | phosphorylation enrichment [11]: 0.803 | phosphorylation enrichment [12]: 0.487 | phosphorylation enrichment [13]: 0.745 | phosphorylation enrichment [14]: 0.517 | phosphorylation enrichment [15]: 0.466 | phosphorylation enrichment [16]: 0.731
